T1: MiGAIP1 (DELLA) (Mangifera indica, UniProt UPI001CFB1029 1-553)
T1 sequence: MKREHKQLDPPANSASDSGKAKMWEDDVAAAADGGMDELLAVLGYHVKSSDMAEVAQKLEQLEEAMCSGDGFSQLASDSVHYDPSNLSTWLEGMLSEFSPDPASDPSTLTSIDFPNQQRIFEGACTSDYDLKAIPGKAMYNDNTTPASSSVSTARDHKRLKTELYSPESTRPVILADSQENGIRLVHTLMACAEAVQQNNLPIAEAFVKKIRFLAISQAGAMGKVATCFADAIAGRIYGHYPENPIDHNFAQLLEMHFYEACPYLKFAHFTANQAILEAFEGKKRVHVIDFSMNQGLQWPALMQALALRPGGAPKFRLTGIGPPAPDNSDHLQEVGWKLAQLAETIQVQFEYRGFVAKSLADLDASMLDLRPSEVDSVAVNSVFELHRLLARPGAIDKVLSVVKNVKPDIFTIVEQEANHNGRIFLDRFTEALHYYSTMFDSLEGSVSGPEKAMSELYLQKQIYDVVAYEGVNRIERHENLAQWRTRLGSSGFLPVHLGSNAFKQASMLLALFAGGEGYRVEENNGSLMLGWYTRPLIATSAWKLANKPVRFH

T2: MiPIF5 (Mangifera indica, UniProt UPI001CFAADE4 1-539)
T2 sequence: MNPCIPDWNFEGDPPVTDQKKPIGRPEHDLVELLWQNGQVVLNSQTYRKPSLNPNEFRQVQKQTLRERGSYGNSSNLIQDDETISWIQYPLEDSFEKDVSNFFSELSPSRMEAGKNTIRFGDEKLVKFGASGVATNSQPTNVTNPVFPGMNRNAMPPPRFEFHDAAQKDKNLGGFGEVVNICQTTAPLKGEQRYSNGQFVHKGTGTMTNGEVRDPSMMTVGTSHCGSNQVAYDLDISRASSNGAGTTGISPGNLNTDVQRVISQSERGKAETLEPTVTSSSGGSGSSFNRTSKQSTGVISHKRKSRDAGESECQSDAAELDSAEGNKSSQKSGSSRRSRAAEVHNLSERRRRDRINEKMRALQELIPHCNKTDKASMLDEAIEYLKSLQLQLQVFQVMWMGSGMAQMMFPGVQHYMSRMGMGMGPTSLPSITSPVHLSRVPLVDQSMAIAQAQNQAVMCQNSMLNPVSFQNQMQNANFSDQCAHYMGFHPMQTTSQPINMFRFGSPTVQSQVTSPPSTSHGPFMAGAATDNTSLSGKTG


Key:
MiGAIP1 (DELLA) = target: T1, MiGAIP1 (DELLA); assay: EMSA; LightShift Chemiluminescent EMSA kit (Thermo) per manufacturer; buffer, salt, pH and temperature not stated; conditions: protein: recombinant; tags: GST (pGEX4T); label: 3' biotin; blunt
MiPIF5 = target: T2, MiPIF5; assay: as above; conditions: protein: recombinant; tags: GST (pGEX4T); chain copies: 2; label: 3' biotin; blunt

| Binder | binding result (MiGAIP1 (DELLA)) | binding result (MiPIF5) |
| --- | --- | --- |
| ProMiAGL5-Probe (MiGAIP1) (dsDNA) DNA 1: TTTCAACAATCAAGAAATGAGAAAGGAAAGAAGAAAAAAGAAAGAAAAAAAAAAAAAGTGTCT DNA 2: AGACACTTTTTTTTTTTTTCTTTCTTTTTTCTTCTTTCCTTTCTCATTTCTTGATTGTTGAAA | binds |  |
| ProMiAGL5-Probe (MiPIF5) (dsDNA) DNA 1: GAGCATCACATGGGAGTCTATTTTCACTTTGTAATTTGAAAAGGAAAGAGATATATAC DNA 2: GTATATATCTCTTTCCTTTTCAAATTACAAAGTGAAAATAGACTCCCATGTGATGCTC |  | binds |
